In paper PMC6643279 (Biochemistry, 2018):

Tests used:
Assay in all cases: purified protein
[1] = test system: CC(=O)OCC(COP(=O)(O)O)OC(C)=O; details: pH 8.0; 30.0 °C
CC(=O)Oc1c[nH]c2ccccc12 = details: pH 8.3; 30.0 °C
CC(=O)Oc1ccc2ccccc2c1 = details: pH 8.0; 30.0 °C

phosphotriesterase homology protein (PHP) (Escherichia coli K-12)
Km [1]: 6000 ± 500 µM
kcat/Km [1]: 4600 ± 650 M⁻¹ s⁻¹
Km (CC(=O)Oc1c[nH]c2ccccc12): 1800 ± 200 µM
kcat/Km (CC(=O)Oc1c[nH]c2ccccc12): 180 ± 20 M⁻¹ s⁻¹
Km (CC(=O)Oc1ccc2ccccc2c1): 1800 ± 200 µM
kcat/Km (CC(=O)Oc1ccc2ccccc2c1): 1400 ± 200 M⁻¹ s⁻¹
